This is an account of results in patent US20090202619A1, “POLYOXYALKYLENE CHAIN-CONTAINING LIPID DERIVATIVE AND LIPID FILM STRUCTURE CONTAINING SUCH DERIVATIVE” (THE UNIVERSITY OF TOKUSHIMA, priority 2005, published 2009).

Details of this data set: species or system male ddY mouse. The following applies: mouse, in vivo, iv. From the text: Using the methylpolyoxyethylenecarbamyl-glycyl-glycyl-glycyl-distearoylphosphadylethanolamine (DSPE-GGG-PEG2000) obtained in Example 5 or the methylpolyoxyethylenecarbamyl-distearoylphosphadylethanolamine (DSPE-PEG2000), egg yolk phosphatidylcholine (EPC) or hydrogenated egg yolk phosphatidylcholine (HEPC), and cholesterol, a composition in the blending ratios shown in Table 2 below was weighed in an egg plant flask, and the liposome solutions of Example 9 and Comparative Examples 4 to 5 were obtained by the same method as (1) above but using doxorubicin in place of the fluorescent dye. To monitor the blood kinetics of the liposome per se, 40 μCi/μmol ^3H-cholesterylhexadecyl ether (^3H-CHE) was added. […]
Next, each liposome was administered to a male ddY mouse from the tail vein (25 mg lipid/kg), blood was collected 2 minutes, 30 minutes, 1 hour, 2 hours, 4 hours, 8 hours, and 24 hours after the administration, the radioactivity in blood was measured to determine the concentration of the liposome per se, and doxorubicin was measured by the fluorescence method to determine the doxorubicin concentration at that time point. Because the doxorubicin that has leaked from the liposome is quickly distributed in various tissues, doxorubicin concentrations determined by this method are considered to reflect the amount of doxorubicin retained in the liposome.

Regarding “methylpolyoxyethylenecarbamyl-glycyl-glycyl-glycyl-distearoylphosphadylethanolamine [Example 4]”, the “cleavage of the lipid derivative in blood” value was “minimally cleaved in blood” and the “influence on the drug-releasing characteristics of liposome” value is “did not influence the drug-releasing characteristics of liposome”.
